The term IC50 denotes the concentration that gives 50% inhibition.

Among the data in US20090136998A1 (Stanford University, published 2009) are IC50 values, retold here.

This test deals with T1, human VEGFR-2 expressed on porcine aortic endothelial cells (PAE/VEGFR-2) (human, UniProt P35968 20-1356).
T1 construct: whole, on cells; also called KDR; PAE/KDR cells
Description: competitive bioluminescence ELISA on PAE/VEGFR-2 cells; cold VEGF 121 varied against RL8-VEGF. On the procedure:
FIG. 10A illustrates coomassie Blue staining of purified fusion proteins and control proteins. […] FIG. 10B illustrates a Western Blot of purified proteins. […] FIG. 10C illustrates competitive bioluminescence ELISA on PAE/VEGFR-2 overexpressing cells.
Cells were washed and incubated with 0.5 μg of coelenterazine substrate and immediately imaged in the Xenogen IVIS 100 optical cooled charge-coupled device (CCD) (Xenogen, Alameda, Calif.). Regions of interest (ROIs) were drawn over the cell area and quantified in average photons/second/centimeter²/steradian (photons/s/cm²/sr) by using […] version 2.50 (Xenogen, Alameda, Calif.).
(In general: In an ELISA, binding on a coated surface is turned into a signal by an enzyme label.)

T1 sequence (P35968 20-1356): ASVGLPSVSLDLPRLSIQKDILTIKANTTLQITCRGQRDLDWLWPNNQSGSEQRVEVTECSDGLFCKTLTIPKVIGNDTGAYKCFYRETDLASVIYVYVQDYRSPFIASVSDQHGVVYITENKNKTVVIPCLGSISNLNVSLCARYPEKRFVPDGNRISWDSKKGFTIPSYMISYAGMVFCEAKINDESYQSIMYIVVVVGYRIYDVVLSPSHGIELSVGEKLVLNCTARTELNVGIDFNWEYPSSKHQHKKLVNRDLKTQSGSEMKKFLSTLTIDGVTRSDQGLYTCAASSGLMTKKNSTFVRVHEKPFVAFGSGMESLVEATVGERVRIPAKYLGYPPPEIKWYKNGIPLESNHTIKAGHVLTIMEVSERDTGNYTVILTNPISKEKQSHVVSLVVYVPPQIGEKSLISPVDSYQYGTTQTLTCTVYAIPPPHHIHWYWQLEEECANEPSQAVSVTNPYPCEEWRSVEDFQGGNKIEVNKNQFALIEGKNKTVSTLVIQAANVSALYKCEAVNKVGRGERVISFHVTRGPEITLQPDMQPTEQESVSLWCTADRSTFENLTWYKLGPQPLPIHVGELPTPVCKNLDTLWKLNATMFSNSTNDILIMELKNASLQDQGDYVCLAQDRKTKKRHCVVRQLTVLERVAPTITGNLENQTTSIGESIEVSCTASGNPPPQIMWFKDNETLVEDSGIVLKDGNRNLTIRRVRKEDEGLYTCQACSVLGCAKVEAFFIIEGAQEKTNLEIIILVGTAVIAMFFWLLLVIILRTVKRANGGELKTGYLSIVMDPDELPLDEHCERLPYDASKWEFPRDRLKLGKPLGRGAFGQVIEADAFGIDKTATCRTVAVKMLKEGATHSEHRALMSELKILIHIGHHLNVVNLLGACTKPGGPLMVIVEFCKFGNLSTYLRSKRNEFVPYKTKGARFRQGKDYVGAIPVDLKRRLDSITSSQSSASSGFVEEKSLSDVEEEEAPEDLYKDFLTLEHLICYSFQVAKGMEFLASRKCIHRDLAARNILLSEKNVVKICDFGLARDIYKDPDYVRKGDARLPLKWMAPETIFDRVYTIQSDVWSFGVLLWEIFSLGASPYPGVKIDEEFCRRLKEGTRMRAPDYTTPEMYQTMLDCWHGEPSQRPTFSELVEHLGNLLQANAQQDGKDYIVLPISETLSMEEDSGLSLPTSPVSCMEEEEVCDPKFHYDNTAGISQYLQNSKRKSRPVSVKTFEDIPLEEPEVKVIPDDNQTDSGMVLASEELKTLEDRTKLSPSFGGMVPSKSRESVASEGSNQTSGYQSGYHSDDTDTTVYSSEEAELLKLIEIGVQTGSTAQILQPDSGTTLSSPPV

B1: recombinant human VEGF 121 (PeproTech) (ligand, UniProt P15692-9 27-147, looked up)
chain: APMAEGGGQNHHEVVKFMDVYQRSYCHPIETLVDIFQEYPDEIEYIFKPSCVPLMRCGGCCNDEGLECVPTEESNITMQIMRIKPHQGQHIGEMSFLQHNKCECRPKKDRARQEKCDKPRR
In turn, B1 had a half-maximal inhibitory concentration (IC50) of 0.045 µg/mL.
